The results in this text go back to patent publication US20020034767.

The test system of the data set is G protein βγ subunits.

β-adrenergic receptor kinase: the “rhodopsin phosphorylation in the presence or absence of 100 nM G protein βγ subunits” value is recorded as “βARK is significantly activated in the presence of G protein βγ subunits”.
